In patent publication US20240101717A1 (BIONECURE THERAPEUTICS, published 2024):

Biological target: T1, human Trop-2 (human, UniProt P09758 27-323)
T1 sequence (looked up): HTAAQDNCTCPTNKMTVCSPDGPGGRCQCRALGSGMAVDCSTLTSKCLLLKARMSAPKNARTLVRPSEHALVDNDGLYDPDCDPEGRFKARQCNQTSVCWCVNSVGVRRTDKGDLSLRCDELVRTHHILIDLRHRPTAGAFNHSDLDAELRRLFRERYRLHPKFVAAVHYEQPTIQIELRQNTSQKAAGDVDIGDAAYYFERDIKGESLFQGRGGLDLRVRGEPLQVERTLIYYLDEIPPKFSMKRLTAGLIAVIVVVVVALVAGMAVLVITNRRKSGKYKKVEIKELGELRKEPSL
Assay: cell-based or functional assay

B1: A1,2X4-MMAE ADC (antibody, V domains shown)
VH: QVQLQESGPGLVKPSETLSLTCTVSGFSLTSYGVNWIRQPPGKGLEWIGVMWAGGSTNYNSALMSRLTISKDTSKNQFSLKLSSVTAADTAVYYCARDENWDGAWFAYWGQGTLVTVSS
VL: DIVMTQSPDSLAVSLGERATINCKSSQSLLNSGTRKNYLAWYQQKPGQPPKLLISWASSRESGVPDRFSGSGSGTDFTLTISSLQAEDVAVYYCKQSYNLFTFGGGTKVEIK
modifications: MMAE-linker conjugated to the antibody; positions not given
IC50 (nM), in vitro cytotoxicity assay on MDA-MB-468 cells: 0.389 nM
